The text below walks through data of patent EP4261227A1.

This test concerns the target OXA-48-like carbapenemase (Klebsiella pneumoniae) (UniProt Q6XEC0). As to the kind of experiment: indirect ELISA, plate coated with 0.2 ug/mL OXA-48-like carbapenemase, purified antibody in doubling dilutions from 1:1000. Background: ELISA stands for enzyme-linked immunosorbent assay.
Chain of UniProt Q6XEC0 (Q6XEC0 23-265 limits assumed): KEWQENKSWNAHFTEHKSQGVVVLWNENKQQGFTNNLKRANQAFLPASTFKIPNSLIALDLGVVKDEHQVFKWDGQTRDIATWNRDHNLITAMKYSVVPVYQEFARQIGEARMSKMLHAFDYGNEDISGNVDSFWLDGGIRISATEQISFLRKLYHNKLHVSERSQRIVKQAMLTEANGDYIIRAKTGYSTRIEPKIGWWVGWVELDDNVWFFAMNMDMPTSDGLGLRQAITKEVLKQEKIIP

B1: anti-OXA-48-like carbapenemase mouse mAb IB5 (antibody, V domains shown)
VH: EVMLVESGGGLVKPGGSLKLSCAASGFTFSTYAMSWVRLTPEKRLEWVATISSGGSYTSYPDSVKGRFTISRDNAKNTLYLQMSSLRSEDTAMYYCARRPEYAMDYWGQGTSVTVSS
VL: LVQHQPVSSYLAASPGETVTINCRASKSISKYLAWYQEKPGKTNKLLIYSGSTFQSGFPSGFSGSGSGTDFTLTVSSLEPEDFAIYYCQQHNEYPYVTFGGGTKLEIKR
Molecule B1 gave a titer (dilution factor (1:x) from 1 mg/mL) of 1.28e+06.
